# Patent US5801037A, “Expression of signal-peptide-free staphylokinases” (medac Gesellschaft fur klinische spezialpraparate mbH, priority 1991, dated 1998)
# What was measured:
# plasminogen [1] = biological target: plasminogen
# plasminogen [2] = experiment: Determination of the specific activity of the SAK polypeptides (plasmin release from plasminogen, Chromozym-PL); assay type: biochemical; conditions: plasminogen in excess, activation 10 minutes at 25° C., 405 nm
# Experimental: The specific activity of a SAK form is defined as that quantity of plasmin (μmol) which is released per minute by 1 μmol of this SAK polypeptide from plasminogen (used in excess).
# The protein content of the pertinent SAK polypeptide-containing parent solutions is established by means of the Bio-Rad Protein Assay (Bio-Rad, Munich) using bovine serum albumin as standard protein.
# The determination of the plasmin release by the SAK polypeptides is carried out in two steps:
# Firstly, dilution series (1 ng to 500 ng) of the SAK polypeptides are produced in 100 mM tris (pH 8.0). A reaction mixture, consisting of 30 μl plasminogen solution 20 mg plasminogen (Fluka), dissolved in 1 ml H2 O, 150 μl 100 mM tris buffer (pH 5.0) and 10 μl activator solution (dilution series SAK polypeptides) is then prepared. This mixture is incubated for 10 minutes at 25° C. […]
# Reference samples, calibration samples and the actual measurement samples (each 250 μl) are pipetted into a microtitre plate with 96 cavities (flat bottom) and the adsorption at 405 nm is measured in a multi-channel photometer.
# The quantity of plasmin which is released per minute by the SAK polypeptides contained in the starting solutions (dilution samples) can be calculated from the absorption values of the measured samples, taking into account the absorption values of the plasmin calibration series and of the reference samples. […]
# [3] = biological target: human plasminogen isolated from human plasma (human, UniProt P00747); experiment: analytical affinity chromatography on immobilized human plasminogen, 16° C., 0.1M tris-HCl pH 7.3
molecule,measurement,setting,value
SAK fragment form N14ΔSAK42D,specific activity in µmol plasmin/(µmol SAK × min) (µmol plasmin/(µmol SAK × min)),plasminogen [1],8.1
artificial allelic SAK form SAKM26C,specific activity in µmol plasmin/(µmol SAK × min) (µmol plasmin/(µmol SAK × min)),plasminogen [1],21.1
SAK fragment form N10ΔSAK42D,specific activity in µmol plasmin/(µmol SAK × min) (µmol plasmin/(µmol SAK × min)),plasminogen [1],22.7
mature native staphylokinase SAK42D,specific activity in µmol plasmin/(µmol SAK × min) (µmol plasmin/(µmol SAK × min)),plasminogen [1],16.2
artificial allelic SAK form SAKM26L,specific activity in µmol plasmin/(µmol SAK × min) (µmol plasmin/(µmol SAK × min)),plasminogen [1],36.6
"SAK42D: signal-peptide-free mature native staphylokinase from S. aureus phage 42D, 136 amino acids, Seq. Id. No. 1 (protein) MSSSFDKGKYKKGDDASYFEPTGPYLMVNVTGVDGKRNELLSPRYVEFPIKPGTTLTKEKIEYYVEWALDATAYKEFRVVELDPSAKIEVTYYDKNKKKEETKSFPITEKGFVVPDLSEHIKNPGFNLITKVVIEKK",specific activity,plasminogen [2],16.2 μmol plasmin/(μmol SAK × min)
SAK fragment form N14ΔSAK42D (other) MASYFEPTGPYLMVNVTGVDGKRNELLSPRYVEFPIKPGTTLTKEKIEYYVEWALDATAYKEFRVVELDPSAKIEVTYYDKNKKKEETKSFPITEKGFVVPDLSEHIKNPGFNLITKVVIEKK,Kd,[3],4.4 µM
SAK fragment form N10ΔSAK42D (other) MKGDDASYFEPTGPYLMVNVTGVDGKRNELLSPRYVEFPIKPGTTLTKEKIEYYVEWALDATAYKEFRVVELDPSAKIEVTYYDKNKKKEETKSFPITEKGFVVPDLSEHIKNPGFNLITKVVIEKK,Kd,[3],2.21 µM
